Source: patent US20230416383A1

What was measured:
Assay in all cases: SPR, mean +/- SD (n = 3)
[1] = target: Cynomolgus FcRn (cynomolgus monkey) (UniProt Q8SPV9)
[2] = target: Cynomolgus FcγRI (cynomolgus monkey)
[3] = target: Cynomolgus FcγRIII (cynomolgus monkey) (UniProt Q8SPW2)
[4] = target: Cynomolgus FcγRIIa (cynomolgus monkey)
[5] = target: Cynomolgus FcγRIIb (cynomolgus monkey)
Human FcγRIIIb (human) = Human FcγRIIIb (human) (UniProt O75015)
Human FcγRIIa (human) = Human FcγRIIa (human) (UniProt P12318)
UniProt P12318, sequence (P12318 36-218 limits assumed): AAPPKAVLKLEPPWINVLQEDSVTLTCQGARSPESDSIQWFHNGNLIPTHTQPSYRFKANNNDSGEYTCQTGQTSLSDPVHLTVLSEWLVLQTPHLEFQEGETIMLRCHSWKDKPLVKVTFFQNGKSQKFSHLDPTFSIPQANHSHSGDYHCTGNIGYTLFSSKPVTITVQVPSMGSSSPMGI

Human FcγRIIb (human) = Human FcγRIIb (human) (UniProt P31994)
UniProt P31994, sequence (P31994 46-217 limits assumed): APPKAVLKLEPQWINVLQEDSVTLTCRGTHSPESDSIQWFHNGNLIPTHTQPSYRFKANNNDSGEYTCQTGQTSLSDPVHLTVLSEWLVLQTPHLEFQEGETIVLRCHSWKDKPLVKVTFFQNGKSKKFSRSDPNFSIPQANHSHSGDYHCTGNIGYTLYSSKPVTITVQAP

[6] = target: human FcγRI (hCD64) (human) (UniProt P12314)
UniProt P12314, sequence (P12314 16-288 limits assumed): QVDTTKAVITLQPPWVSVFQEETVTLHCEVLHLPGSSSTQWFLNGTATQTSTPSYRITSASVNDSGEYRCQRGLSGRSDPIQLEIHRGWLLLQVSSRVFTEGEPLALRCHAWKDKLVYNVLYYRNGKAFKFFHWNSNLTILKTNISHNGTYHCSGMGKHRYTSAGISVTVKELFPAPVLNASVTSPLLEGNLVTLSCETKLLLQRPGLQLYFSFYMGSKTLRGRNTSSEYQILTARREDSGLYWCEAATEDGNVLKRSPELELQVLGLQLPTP

[7] = target: recombinant Human Fc gamma RIIIA/CD16a (V176) (human) (UniProt P08637)
[8] = target: recombinant Human Fc gamma RIIIA/CD16a (V176F) (human) (UniProt P08637)

UniProt Q8SPW2, sequence (Q8SPW2 17-208 limits assumed): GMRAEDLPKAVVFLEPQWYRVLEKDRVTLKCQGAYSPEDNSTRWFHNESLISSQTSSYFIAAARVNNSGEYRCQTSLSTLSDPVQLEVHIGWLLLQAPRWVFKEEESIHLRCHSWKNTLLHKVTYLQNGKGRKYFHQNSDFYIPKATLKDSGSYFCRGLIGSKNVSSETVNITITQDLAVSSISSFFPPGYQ
UniProt O75015, sequence (O75015 17-200 limits assumed): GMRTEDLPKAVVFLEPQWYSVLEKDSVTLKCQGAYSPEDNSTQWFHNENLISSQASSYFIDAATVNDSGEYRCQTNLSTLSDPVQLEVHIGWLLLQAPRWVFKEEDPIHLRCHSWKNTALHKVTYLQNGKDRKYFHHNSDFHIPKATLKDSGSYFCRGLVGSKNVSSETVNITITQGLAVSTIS

Substance: Human IgG1 control (antibody)
- Kd [1]: 237 nM
- Kd [2]: 18 nM
- Kd [3]: 580 nM
- Kd [4]: 6340 nM
- Kd [5]: 2320 nM
- Kd (Human FcγRIIIb (human)): 7540 nM
- Kd (Human FcγRIIa (human)): 1570 nM
- Kd (Human FcγRIIb (human)): 4230 nM
- Kd [6]: 0.2 nM
- Kd [7]: 575 nM
- Kd [8]: 2820 nM
